PMC3575409, “Identification of a Novel Protein-Protein Interaction Motif Mediating Interaction of GPCR-Associated Sorting Proteins with G Protein-Coupled Receptors” (PLoS ONE, 2013)
Values belong to the molecule of their own block, whether it stands above or below them.

Key:
Format in all cases: binding
GST-fused ADRB1 C-tail = experiment: GST-pull down, ADRB1 C-tail; settings: for interaction of truncated GASP-1 with ADRB1 C-tail (words): compared with full-length GASP-1
Source text: (§1) cDNAs encoding the cytoplasmic C-tail of 14 GPCRs and 2 one-transmembrane receptors were cloned into the pGEX-2T prokaryotic expression vector downstream the GST sequence. The following pGEX constructs were engineered: pGEX-DOR encoding residues 314–372 of the δ-opioid receptor (referring to Swiss-Prot accession number U10504), pGEX-MOR encoding residues 334–400 of the µ-opioid receptor (L29301), pGEX-KOR encoding residues 326–380 of the κ–opioid receptor (U17298), pGEX-ORL1 encoding residues 315–370 of the opioid receptor-like 1 (X77130), pGEX-M1 encoding residues 414–460 of the muscarinic M1 acetylcholine receptor (X52068), pGEX-M2 encoding residues 436–466 of the muscarinic M2 acetylcholine receptor (M16404), pGEX- ADRB1 encoding residues 373–477 of the β1 adrenergic receptor (J03019), pGEX-ADRB2 encoding residues 322–413 of the β2 adrenergic receptor (P07550), pGEX-CALCR encoding residues 407–490 of the calcitonin receptor (L00587), pGEX-CNR2 encoding residues 295–360 of the cannabinoid type 2 receptor (P34972), pGEX-5HT7 encoding residues 380–445 of the 5-hydroxytryptamine 7 receptor (L21195), pGEX-H2 encoding residues 284–349 of the histamine 2 receptor (S57565), pGEX-TXA2 encoding residues 304–343 of the α isoform of the thromboxane A2 receptor (D38081), pGEX-FZ4 encoding residues 493–537 of the frizzled 4 receptor (AB032417), pGEX-TGFβ encoding residues 805–849 of the type III transforming growth factor b receptor (L07594), pGEX-IGF1 encoding residues 1268–1367 of the insulin growth factor I receptor (X04434). Free GST was produced by using the pGEX-4T3 expression vector without insert. The same plasmid was used to clone the cDNA encoding a central domain of GASP-1, corresponding to amino acids 380 to 1073, downstream the GST sequence. All these plasmids were transformed into the Escherichia coli BL21 strain and expression was induced using 1mM of isopropylthiogalactoside for 2 h at 37°C. Bacteria were then pelleted, resuspended in PBS supplemented with cOmplete protease inhibitors (Roche), lysed at 1.5 kbar using a basic Z cell disrupter (constant system) and finally the lysates were cleared by centrifugation (10,000g, 15 min, 4°C).
(§2) cDNAs encoding GASP-1 and GASP-2 were cloned into the pcDNA3 eukaryotic expression vectors. cDNAs encoding GASP-3, -6, -7, and -9 were subcloned into pcDNA3.1 vectors. All the clones were controlled by DNA sequencing. The in vitro production was performed by using the TNT Quick-coupled Transcription/Translation T7 kit (Promega) in presence of [^35S]-Methionine according to the instructions from the manufacturer.
(§3) GST-fusion proteins were immobilized on glutathione-coupled Sepharose beads (GE Healthcare) for 1 h at 4°C and incubated with [^35S]-labelled in vitro translated GASP proteins or their truncated or mutated forms in ice-cold binding buffer containing: 20 mM Tris-HCl pH 7.4, 150 mM NaCl, 1 mM EDTA, 1 mM DTT, 10% glycerol and 1% Triton X-100. The mixture was incubated for 1 h at 4°C with gentle rocking. The beads were washed five times with the same ice-cold buffer, resuspended in 30 µl SDS-PAGE sample buffer, incubated 10 min at 65°C, and pelleted for 60 s at 3000 g. The supernatants were then analyzed by SDS-PAGE, the gels were stained with Coomassie blue to visualize GST-fusion proteins, dried and analyzed using a Phosphor-imager (Personal Molecular Imager FX, Biorad) to visualize [^35S]-labelled GASPs. Quantification was performed with the Quantity One software (Biorad). GST-pull down quantification data were analyzed using GraphPad Prism 4.03 (GraphPad Software). Quantifications presented are means of at least three independent experiments.

GST-fused CALCR C-tail = experiment: GST-pull down, CALCR C-tail
Procedure: (§4) cDNAs encoding the cytoplasmic C-tail of 14 GPCRs and 2 one-transmembrane receptors were cloned into the pGEX-2T prokaryotic expression vector downstream the GST sequence. […]
as §3, with “The mixture was incubated for 1 h at 4°C with gentle rocking. The beads were washed five times with the same ice-cold buffer, resuspended in 30 µl SDS-PAGE sample buffer, incubated 10 min at 65°C, and pelleted for 60 s at 3000 g.” left out

GST-fused TXA2 C-tail = experiment: GST-pull down, TXA2 C-tail; settings: percent of [35S]-GASP input; pH 7.4, 1 h at 4°C; three independent experiments
Procedure: as §4
as §3, with “The mixture was incubated for 1 h at 4°C with gentle rocking. The beads were washed five times with the same ice-cold buffer, resuspended in 30 µl SDS-PAGE sample buffer, incubated 10 min at 65°C, and pelleted for 60 s at 3000 g.” left out

GST-fused M1 C-tail = experiment: GST-pull down, M1 C-tail; settings: for interaction of truncated GASP-1 with M1 C-tail (words): compared with full-length GASP-1
Source text: as §1, §2, §3

GST-fused DOR C-tail = experiment: GST-pull down, DOR C-tail
Source text: as §1, §2, §3

[1] = test system: GST-fused H2 (histamine H2 receptor) C-tail; experiment: GST-pull down, H2 C-tail; settings: percent of [35S]-GASP input; pH 7.4, 1 h at 4°C; three independent experiments
Procedure: as §4
as §3, with “The mixture was incubated for 1 h at 4°C with gentle rocking. The beads were washed five times with the same ice-cold buffer, resuspended in 30 µl SDS-PAGE sample buffer, incubated 10 min at 65°C, and pelleted for 60 s at 3000 g.” left out

[2] = test system: GST-fused TGFβ (type III transforming growth factor β receptor) C-tail; experiment: GST-pull down, TGFβ C-tail; settings: for interaction with TGFβ C-tail: non-GPCR control
Source text: as §1, §2, §3

[3] = test system: GST-fused IGF1 (insulin growth factor I receptor) C-tail; experiment: GST-pull down, IGF1 C-tail; settings: for interaction with IGF1 C-tail: non-GPCR control
Source text: as §1, §2, §3

GST-fused GPCR C-tails = experiment: GST-pull down, GPCR C-tails; settings: for interaction with GPCR C-tails: twelve GPCR C-tails
Source text: as §1, §2
as §3, with “experiments. […]” for “experiments.”

GST-fused FZ4 C-tail = experiment: GST-pull down, FZ4 C-tail; settings: strong = >10% of GASP input
Procedure: as §4
as §3, with “The mixture was incubated for 1 h at 4°C with gentle rocking. The beads were washed five times with the same ice-cold buffer, resuspended in 30 µl SDS-PAGE sample buffer, incubated 10 min at 65°C, and pelleted for 60 s at 3000 g.” left out

[4] = percent of [35S]-GASP input, pH 7.4, 1 h at 4°C, three independent experiments
[5] = percent of [35S]-GASP input, controls

GASP input retained by H2 C-tail [1]: around 2%
interaction with TGFβ C-tail [2]: No interaction was detected
GASP input retained by control TGFβ C-tail [2, 5]: less than 1%
interaction with IGF1 C-tail [3]: No interaction was detected
GASP input retained by control IGF1 C-tail [3, 5]: less than 1%
B1: GASP-6: member of the second GASP subfamily, without GASP motif (protein)
chain: MGYARKVGWVTAGLVIGAGACYCIYRLTRGRKQNKEKMAEGGSGDVDDAGDCSGARYNDWSDDDDDSNESKSIVWYPPWARIGTEAGTRARARARARATRARRAVQKRASPNSDDTVLSPQELQKVLCLVEMSEKPYILEAALIALGNNAAYAFNRDIIRDLGGLPIVAKILNTRDPIVKEKALIVLNNLSVNAENQRRLKVYMNQVCDDTITSRLNSSVQLAGLRLLTNMTVTNEYQHMLANSISDFFRLFSAGNEETKLQVLKLLLNLAENPAMTRELLRAQVPSSLGSLFNKKENKEVILKLLVIFENINDNFKWEENEPTQNQFGEGSLFFFLKEFQVCADKVLGIESHHDFLVKVKVGKFMAKLAEHMFPKSQE
modifications: [35S]-methionine labelled
GASP input retained by ADRB1 C-tail (GST-fused ADRB1 C-tail; [4]): around 2%
GASP input retained by CALCR C-tail (GST-fused CALCR C-tail; [4]): around 2%
GASP input retained by TXA2 C-tail (GST-fused TXA2 C-tail): around 2%
GASP input retained by M1 C-tail (GST-fused M1 C-tail; [4]): around 2%
GASP input retained by DOR C-tail (GST-fused DOR C-tail; [4]): around 2%
interaction with GPCR C-tails (GST-fused GPCR C-tails): very weak interactions

interaction with TGFβ C-tail [2]: no interaction was detected
interaction with IGF1 C-tail [3]: no interaction was detected
B2: GASP-3: member of the GASP family, two GASP motifs (protein)
chain: MAGTKNKTRAQAKTEKKAAIQAKAGAEREATGVVRPVAKTRAKAKAKTGSKTDAVAEMKAVSKNKVVAETKEGALSEPKTLGKAMGDFTPKAGNESTSSTCKNEAGTDAWFWAGEEATINSWFWNGEEAGNSFSTKNDKPEIGAQVCAEELEPAAGADCKPRSGAEEEEEENVIGNWFWEGDDTSFDPNPKPVSRIVKPQPVYEINEKNRPKDWSEVTIWPNAPAVTPAVLGFRSQAPSEASPPSYIVLASAEENACSLPVATACRPSRNTRSCSQPIPECRFDSDPCIQTIDEIRRQIRIREVNGIKPFACPCKMECYMDSEEFEKLVSLLKSTTDPLIHKIARIAMGVHNVHPFAQEFINEVGVVTLIESLLSFPSPEMRKKTVITLNPPSGDERQRKIELHVKHMCKETMSFPLNSPGQQSGLKILGQLTTDFVHHYIVANYFSELFHLLSSGNCKTRNLVLKLLLNMSENPTAARDMINMKALAALKLIFNQKEAKANLVSGVAIFINIKEHIRKGSIVVVDHLSYNTLMAIFREVKEIIETM
modifications: [35S]-methionine labelled
interaction with FZ4 C-tail (GST-fused FZ4 C-tail): strong interaction
GASP input retained by GPCR C-tails (GST-fused GPCR C-tails; percent of GASP input): > 10%
interaction with GPCR C-tails (GST-fused GPCR C-tails): medium to strong interactions

B3: mutant 470–838: truncated GASP-2 corresponding to the C-terminal domain (protein)
chain: KVSDRFRDAAEELNASSRPQTWDEVTVEFKPGLFHGVGFRSTSPFGIPEEASEMLEAKPKNLELSPEGEEQESLLQPDQPSPEFTFQYDPSYRSVREIREHLRARESAESESWSCSCIQCELKIGSEEFEEFLLLMDKIRDPFIHEISKIAMGMRSASQFTRDFIRDSGVVSLIETLLNYPSSRVRTSFLENMIHMAPPYPNLNMIETFICQVCEETLAHSVDSLEQLTGIRMLRHLTMTIDYHTLIANYMSGFLSLLTTANARTKFHVLKMLLNLSENPAVAKKLFSAKALSIFVGLFNIEETNDNIQIVIKMFQNISNIIKSGKMSLIDDDFSLEPLISAFREFEELAKQLQAQIDNQNDPEVGQQS
modifications: [35S]-methionine labelled
interaction of GASP-2 mutants with ADRB1 C-tail (GST-fused ADRB1 C-tail; compared to wild-type GASP-2): almost no interaction
interaction of GASP-2 mutants with CALCR C-tail (GST-fused CALCR C-tail; compared to wild-type GASP-2): almost no interaction
interaction of GASP-2 mutants with M1 C-tail (GST-fused M1 C-tail; compared to wild-type GASP-2): almost no interaction

B4: mutant 1025–1395: truncated mutant of GASP-1 corresponding to the conserved C-terminal domain (protein)
chain: ICRSTCSVEQEPDPSRRPQSWEEVTVQFKPGPWGRVGFPSISPFRFPKEAASLFCEMFGGKPRNMVLSPEGEDQESLLQPDQPSPEFPFQYDPSYRSVQEIREHLRAKESTEPESSSCNCIQCELKIGSEEFEELLLLMEKIRDPFIHEISKIAMGMRSASQFTRDFIRDSGVVSLIETLLNYPSSRVRTSFLENMIRMAPPYPNLNIIQTYICKVCEETLAYSVDSPEQLSGIRMIRHLTTTTDYHTLVANYMSGFLSLLATGNAKTRFHVLKMLLNLSENLFMTKELLSAEAVSEFIGLFNREETNDNIQIVLAIFENIGNNIKKETVFSDDDFNIEPLISAFHKVEKFAKELQGKTDNQNDPEGDQEN
modifications: [35S]-methionine labelled
interaction of truncated GASP-1 with ADRB1 C-tail (words) (GST-fused ADRB1 C-tail): did not display detectable interactions
interaction of truncated GASP-1 with ADRB1 C-tail (words) (GST-fused ADRB1 C-tail; listed as 1025–1395): no significant interaction
interaction of truncated GASP-1 with M1 C-tail (words) (GST-fused M1 C-tail): did not display detectable interactions
interaction of truncated GASP-1 with M1 C-tail (words) (GST-fused M1 C-tail; listed as 1025–1395): no significant interaction
interaction of truncated GASP-1 with DOR C-tail (GST-fused DOR C-tail; compared with full-length GASP-1): interacted only weakly
interaction with DOR C-tail relative to full-length GASP-1 (GST-fused DOR C-tail; percent of full-length GASP-1 interaction, three independent experiments): 25%
